Reference: patent publication US20180319872A1 (UNIVERSITY OF MARYLAND BALTIMORE, published 2018)

B1: VHH peptide monomer AH3 (VHH)
VHH: QVQLVETGGLVQPGGSLRLSCAASGFTLDYSSIGWFRQAPGKEREGVSCISSSGDSTKYADSVKGRFTTSRDNAKNTVYLQMNSLKPDDTAVYYCAAFRATMCGVFPLSPYGKDDWGKGTLVTVSS
notes: also called VHH AH3
B2: VHH peptide monomer 5D (VHH)
VHH: QVQLVESGGGLVQPGGSLRLSCEASGFTLDYYGIGWFRQPPGKEREAVSYISASARTILYADSVKGRFTISRDNAKNAVYLQMNSLKREDTAVYYCARRRFSASSVNRWLADDYDVWGRGTQVAVSS
B3: ABAB binding agent (AH3/5D/AA6/E3, tetra-specific tetrameric VHH) (designed binder)
chain: QVQLVETGGGLVQPGGSLRLSCAASGFTLDYSSIGWFRQAPGKEREGVSCISSSGDSTKYADSVKGRFTTSRDNAKNTVYLQMNSLKPDDTAVYYCAAFRATMCGVFPLSPYGKDDWGKGTLVTVSSGGGGSGGGGSGGGGSQVQLVESGGGLVQPGGSLRLSCEASGFTLDYYGIGWFRQPPGKEREAVSYISASARTILYADSVKGRFTISRDNAKNAVYLQMNSLKREDTAVYYCARRRFSASSVNRWLADDYDVWGRGTQVAVSSGGGSGGGSGGGSGGGSQLQLVETGGGLVQPGGSLRLSCAASGFTFSDYVMTWVRQAPGKGPEWIATINTDGSTMRDDSTKGRFTISRDNAKNTLYLQMTSLKPEDTALYYCARGRVISASAIRGAVRGPGTQVTVSSGGGGSGGGGSGGGGSQVQLVESGGGLVQTGGSLRLSCASSGSIAGFETVTWSRQAPGKSLQWVASMTKTNNEIYSDSVKGRFIISRDNAKNTVYLQMNSLKPEDTGVYFCKGPELRGQGIQVTVSS
notes: also called r-ABAB; recombinant ABAB
B4: VHH peptide monomer E3 (VHH)
VHH: QVQLVESGGGLVQTGGSLRLSCASSGSIAGFETVTWSRQAPGKSLQWVASMTKTNNEIYSDSVKGRFIISRDNAKNTVYLQMNSLKPEDTGVYFCKGPELRGQGIQVTVSS
notes: also called VHH E3

Tests used:
[1] = target: T1, Clostridium difficile toxin A (TcdA) (Clostridium difficile, UniProt P16154 1-2710); test: binding kinetics, method not stated
T1 construct: also called TxA; rTcdA

[2] = target: T2, Clostridium difficile toxin B (TcdB) (Clostridium difficile, UniProt P18177 2-2366); test: binding kinetics, method not stated
T2 construct: also called TxB

[3] = target: T2, Clostridium difficile toxin B (TcdB); test: ELISA on plates coated with 1 ug/ml TcdB (TxB), OD450

T2 sequence (P18177 2-2366 limits assumed): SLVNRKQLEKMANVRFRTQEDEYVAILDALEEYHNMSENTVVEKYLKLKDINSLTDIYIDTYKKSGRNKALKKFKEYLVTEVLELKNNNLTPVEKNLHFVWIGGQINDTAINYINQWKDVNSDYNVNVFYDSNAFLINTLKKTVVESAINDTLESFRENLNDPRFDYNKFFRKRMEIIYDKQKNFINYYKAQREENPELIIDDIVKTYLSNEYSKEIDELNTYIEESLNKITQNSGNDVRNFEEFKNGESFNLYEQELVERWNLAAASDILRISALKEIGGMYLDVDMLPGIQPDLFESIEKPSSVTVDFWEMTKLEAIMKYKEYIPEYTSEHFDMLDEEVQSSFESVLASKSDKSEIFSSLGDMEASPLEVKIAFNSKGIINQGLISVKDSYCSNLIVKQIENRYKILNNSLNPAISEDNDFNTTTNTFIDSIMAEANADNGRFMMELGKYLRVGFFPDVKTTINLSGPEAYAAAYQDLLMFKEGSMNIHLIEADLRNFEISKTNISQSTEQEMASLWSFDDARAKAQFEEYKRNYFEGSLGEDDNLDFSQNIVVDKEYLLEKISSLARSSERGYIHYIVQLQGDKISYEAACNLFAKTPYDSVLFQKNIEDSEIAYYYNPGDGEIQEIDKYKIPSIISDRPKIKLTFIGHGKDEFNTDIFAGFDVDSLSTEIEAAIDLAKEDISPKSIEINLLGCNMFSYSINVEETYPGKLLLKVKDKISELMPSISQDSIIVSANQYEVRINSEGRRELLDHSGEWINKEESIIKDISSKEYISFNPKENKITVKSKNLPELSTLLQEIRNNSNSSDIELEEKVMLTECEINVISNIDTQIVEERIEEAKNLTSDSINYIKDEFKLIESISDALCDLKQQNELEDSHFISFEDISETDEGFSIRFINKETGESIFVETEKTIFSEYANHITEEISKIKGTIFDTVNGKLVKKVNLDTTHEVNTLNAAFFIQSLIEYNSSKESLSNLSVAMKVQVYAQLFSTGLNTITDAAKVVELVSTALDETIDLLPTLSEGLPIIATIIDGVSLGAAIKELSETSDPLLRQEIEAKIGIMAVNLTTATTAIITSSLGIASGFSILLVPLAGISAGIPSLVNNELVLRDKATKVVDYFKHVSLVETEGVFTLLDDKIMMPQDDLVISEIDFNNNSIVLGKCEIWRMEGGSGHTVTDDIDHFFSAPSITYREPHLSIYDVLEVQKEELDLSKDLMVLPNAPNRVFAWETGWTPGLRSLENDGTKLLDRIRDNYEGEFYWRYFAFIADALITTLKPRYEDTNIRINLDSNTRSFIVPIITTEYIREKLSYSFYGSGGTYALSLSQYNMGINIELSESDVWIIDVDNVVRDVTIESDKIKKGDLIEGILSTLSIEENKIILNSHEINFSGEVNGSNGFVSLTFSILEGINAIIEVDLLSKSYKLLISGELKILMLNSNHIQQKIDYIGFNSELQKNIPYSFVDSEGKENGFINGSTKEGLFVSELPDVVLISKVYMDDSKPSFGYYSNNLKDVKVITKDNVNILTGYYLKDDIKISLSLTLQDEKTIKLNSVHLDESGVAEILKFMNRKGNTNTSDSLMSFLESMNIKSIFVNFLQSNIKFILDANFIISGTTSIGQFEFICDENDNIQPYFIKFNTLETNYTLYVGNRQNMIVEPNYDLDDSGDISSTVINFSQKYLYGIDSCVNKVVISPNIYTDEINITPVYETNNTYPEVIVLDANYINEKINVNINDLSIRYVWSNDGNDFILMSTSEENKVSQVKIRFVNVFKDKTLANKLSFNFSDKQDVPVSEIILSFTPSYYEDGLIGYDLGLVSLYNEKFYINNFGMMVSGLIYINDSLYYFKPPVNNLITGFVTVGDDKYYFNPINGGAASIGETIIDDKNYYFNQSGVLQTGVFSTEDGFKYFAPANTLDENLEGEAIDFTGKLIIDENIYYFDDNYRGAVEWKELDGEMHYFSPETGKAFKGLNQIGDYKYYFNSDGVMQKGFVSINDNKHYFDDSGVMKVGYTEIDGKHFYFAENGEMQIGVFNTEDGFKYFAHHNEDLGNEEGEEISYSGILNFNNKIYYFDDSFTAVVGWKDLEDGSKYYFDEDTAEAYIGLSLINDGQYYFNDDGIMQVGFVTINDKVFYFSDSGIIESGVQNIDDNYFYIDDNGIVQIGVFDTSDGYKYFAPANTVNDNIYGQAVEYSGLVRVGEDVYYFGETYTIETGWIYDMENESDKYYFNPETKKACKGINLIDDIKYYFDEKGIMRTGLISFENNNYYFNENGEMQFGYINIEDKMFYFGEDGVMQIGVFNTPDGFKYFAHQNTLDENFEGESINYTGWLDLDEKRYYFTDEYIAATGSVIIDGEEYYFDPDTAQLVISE
T1 sequence (P16154 whole entry): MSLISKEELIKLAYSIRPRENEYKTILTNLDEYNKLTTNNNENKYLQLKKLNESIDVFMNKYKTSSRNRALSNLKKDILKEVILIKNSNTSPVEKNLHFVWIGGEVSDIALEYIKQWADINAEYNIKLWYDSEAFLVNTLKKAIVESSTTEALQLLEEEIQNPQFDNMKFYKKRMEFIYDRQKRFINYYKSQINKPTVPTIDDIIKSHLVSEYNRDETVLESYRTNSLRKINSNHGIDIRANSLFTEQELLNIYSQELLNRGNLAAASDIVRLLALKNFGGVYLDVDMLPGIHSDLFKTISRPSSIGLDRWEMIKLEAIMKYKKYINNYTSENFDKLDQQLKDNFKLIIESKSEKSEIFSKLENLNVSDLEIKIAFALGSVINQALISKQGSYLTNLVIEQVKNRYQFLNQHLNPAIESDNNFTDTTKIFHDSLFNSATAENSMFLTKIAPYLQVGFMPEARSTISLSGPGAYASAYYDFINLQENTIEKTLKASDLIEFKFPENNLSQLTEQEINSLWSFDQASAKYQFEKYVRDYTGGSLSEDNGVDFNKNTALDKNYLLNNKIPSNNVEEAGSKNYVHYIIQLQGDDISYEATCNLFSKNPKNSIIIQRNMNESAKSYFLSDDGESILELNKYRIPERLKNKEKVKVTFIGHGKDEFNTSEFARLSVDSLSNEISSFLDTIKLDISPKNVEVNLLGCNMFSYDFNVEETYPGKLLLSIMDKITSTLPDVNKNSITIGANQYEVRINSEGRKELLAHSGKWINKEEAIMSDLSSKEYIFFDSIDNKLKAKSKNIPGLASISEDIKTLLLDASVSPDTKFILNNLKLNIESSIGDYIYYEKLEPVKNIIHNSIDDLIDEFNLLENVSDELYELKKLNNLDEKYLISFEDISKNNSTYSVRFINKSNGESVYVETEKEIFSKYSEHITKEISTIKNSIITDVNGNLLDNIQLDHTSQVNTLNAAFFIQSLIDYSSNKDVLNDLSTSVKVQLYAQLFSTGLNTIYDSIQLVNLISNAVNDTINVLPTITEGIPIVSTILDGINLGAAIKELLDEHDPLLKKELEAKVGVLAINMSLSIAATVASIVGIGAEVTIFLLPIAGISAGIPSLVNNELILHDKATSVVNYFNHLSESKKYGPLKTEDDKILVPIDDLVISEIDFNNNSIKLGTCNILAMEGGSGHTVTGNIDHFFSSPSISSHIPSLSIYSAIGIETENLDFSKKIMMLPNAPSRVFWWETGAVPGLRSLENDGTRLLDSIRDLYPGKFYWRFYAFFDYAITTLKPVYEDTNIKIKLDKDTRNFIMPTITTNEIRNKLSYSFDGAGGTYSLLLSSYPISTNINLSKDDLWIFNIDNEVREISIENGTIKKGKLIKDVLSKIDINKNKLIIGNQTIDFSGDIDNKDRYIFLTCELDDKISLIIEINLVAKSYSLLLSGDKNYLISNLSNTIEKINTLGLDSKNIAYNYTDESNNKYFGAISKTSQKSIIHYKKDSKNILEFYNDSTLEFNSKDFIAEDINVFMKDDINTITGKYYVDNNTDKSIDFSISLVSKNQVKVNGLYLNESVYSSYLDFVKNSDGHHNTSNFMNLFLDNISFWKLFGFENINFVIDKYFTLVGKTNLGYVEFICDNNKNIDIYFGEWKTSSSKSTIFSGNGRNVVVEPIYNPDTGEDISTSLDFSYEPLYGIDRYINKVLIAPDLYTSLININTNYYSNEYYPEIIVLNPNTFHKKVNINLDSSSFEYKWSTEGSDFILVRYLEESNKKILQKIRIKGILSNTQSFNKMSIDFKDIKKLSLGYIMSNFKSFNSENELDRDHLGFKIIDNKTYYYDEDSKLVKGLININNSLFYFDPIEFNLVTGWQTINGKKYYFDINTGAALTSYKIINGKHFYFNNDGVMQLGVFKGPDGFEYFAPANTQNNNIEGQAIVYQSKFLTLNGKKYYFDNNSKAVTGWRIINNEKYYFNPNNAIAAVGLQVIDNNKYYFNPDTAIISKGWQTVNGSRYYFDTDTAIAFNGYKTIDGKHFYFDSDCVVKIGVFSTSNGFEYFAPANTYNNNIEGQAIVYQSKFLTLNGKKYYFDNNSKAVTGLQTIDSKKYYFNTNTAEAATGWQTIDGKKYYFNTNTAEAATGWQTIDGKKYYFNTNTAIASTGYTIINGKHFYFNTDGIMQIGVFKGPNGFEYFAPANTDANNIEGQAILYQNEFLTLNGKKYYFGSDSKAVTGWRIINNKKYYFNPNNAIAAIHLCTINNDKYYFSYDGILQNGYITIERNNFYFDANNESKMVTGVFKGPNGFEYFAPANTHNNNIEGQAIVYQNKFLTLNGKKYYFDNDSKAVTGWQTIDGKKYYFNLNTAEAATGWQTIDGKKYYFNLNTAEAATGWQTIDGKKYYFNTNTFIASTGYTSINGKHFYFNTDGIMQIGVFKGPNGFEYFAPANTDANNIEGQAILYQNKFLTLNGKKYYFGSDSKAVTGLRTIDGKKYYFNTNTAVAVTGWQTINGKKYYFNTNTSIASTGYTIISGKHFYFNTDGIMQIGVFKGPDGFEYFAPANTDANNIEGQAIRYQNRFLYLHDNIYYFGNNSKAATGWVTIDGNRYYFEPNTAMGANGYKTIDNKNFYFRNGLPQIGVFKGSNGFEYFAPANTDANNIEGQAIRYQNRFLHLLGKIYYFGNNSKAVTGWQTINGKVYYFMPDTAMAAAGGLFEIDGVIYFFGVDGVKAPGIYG

Binder | Kd [1] [nM] | koff [1] [s⁻¹] | kon [1] [M⁻¹ s⁻¹] | Kd [2] [nM] | koff [2] [s⁻¹] | kon [2] [M⁻¹ s⁻¹] | EC50 (read off the curve) [3] [ng/mL]
B1 | 32 | 0.00071 | 22000 | – | – | – | –
B2 | – | – | – | 0.65 | 0.000994 | 1.52e+06 | –
B3 | – | – | – | 0.002 | 3.57e-06 | 1.79e+06 | –
B4 | – | – | – | 0.03 | 9.4e-05 | 2.95e+06 | ~20
